Data reported in patent US20090099029A1, “Methods and substrates for conducting assays” (Invitrogen Corporation, priority 2005, published 2009).

System: kinases of Table 6 on Myelin Basic Protein (MBP)
Experiment: Kinase assay using MBP substrate, ProQ Diamond stain (Table 6)
Format: biochemical
Details: kinase printed on MBP-coated slide; 20 uM ATP, 30° C.; ProQ Diamond Microarray Stain; graded Strong/Weak/Negative
Outline: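 Bovine dephosphorylated MBP coated on aldehyde- or epoxy-glass slides, kinases printed on top; reaction buffer pH 7.5 with 4 mM MgCl2, 20 uM ATP, 5% DMSO, ± inhibitor, at 30° C. Phosphorylation detected by ProQ Diamond stain, 30 min in dark.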

B1: PRKCE (protein)
chain: MVVFNGLLKIKICEAVSLKPTAWSLRHAVGPRPQTFLLDPYIALNVDDSRIGQTATKQKTNSPAWHDEFVTDVCNGRKIELAVFHDAPIGYDDFVANCTIQFEELLQNGSRHFEDWIDLEPEGRVYVIIDLSGSSGEAPKDNEERVFRERMRPRKRQGAVRRRVHQVNGHKFMATYLRQPTYCSHCRDFIWGVIGKQGYQCQVCTCVVHKRCHELIITKCAGLKKQETPDQVGSQRFSVNMPHKFGIHNYKVPTFCDHCGSLLWGLLRQGLQCKVCKMNVHRRCETNVAPNCGVDARGIAKVLADLGVTPDKITNSGQRRKKLIAGAESPQPASGSSPSEEDRSKSAPTSPCDQEIKELENNIRKALSFDNRGEEHRAASSPDGQLMSPGENGEVRQGQAKRLGLDEFNFIKVLGKGSFGKVMLAELKGKDEVYAVKVLKKDVILQDDDVDCTMTEKRILALARKHPYLTQLYCCFQTKDRLFFVMEYVNGGDLMFQIQRSRKFDEPRSRFYAAEVTSALMFLHQHGVIYRDLKLDNILLDAEGHCKLADFGMCKEGILNGVTTTTFCGTPDYIAPEILQELEYGPSVDWWALGVLMYEMMAGQPPFEADNEDDLFESILHDDVLYPVWLSKEAVSILKAFMTKNPHKRLGCVASQNGEDAIKQHPFFKEIDWVLLEQKKIKPPFKPRIKTKRDVNNFDQDFTREEPVLTLVDEAIVKQINQEEFKGFSYFGEDLMP
- MBP Kinase Activity: Strong

B2: PRKCZ (protein)
chain: MPSRTGPKMEGSGGRVRLKAHYGGDIFITSVDAATTFEELCEEVRDMCRLHQQHPLTLKWVDSEGDPCTVSSQMELEEAFRLARQCRDEGLIIHVFPSTPEQPGLPCPGEDKSIYRRGARRWRKLYRANGHLFQAKRFNRRAYCGQCSERIWGLARQGYRCINCKLLVHKRCHGLVPLTCRKHMDSVMPSQEPPVDDKNEDADLPSEETDGIAYISSSRKHDSIKDDSEDLKPVIDGMDGIKISQGLGLQDFDLIRVIGRGSYAKVLLVRLKKNDQIYAMKVVKKELVHDDEDIDWVQTEKHVFEQASSNPFLVGLHSCFQTTSRLFLVIEYVNGGDLMFHMQRQRKLPEEHARFYAAEICIALNFLHERGIIYRDLKLDNVLLDADGHIKLTDYGMCKEGLGPGDTTSTFCGTPNYIAPEILRGEEYGFSVDWWALGVLMFEMMAGRSPFDIITDNPDMNTEDYLFQVILEKPIRIPRFLSVKASHVLKGFLNKDPKERLGCRPQTGFSDIKSHAFFRSIDWDLLEKKQALPPFQPQITDDYGLDNFDTQFTSEPVQLTPDDEDAIKRIDQSEFEGFEYINPLLLSTEESV
- MBP Kinase Activity: Strong

B3: EPHB3 (protein)
chain: CLRKQRHGSDSEYTEKLQQYIAPGMKVYIDPFTYEDPNEAVREFAKEIDVSCVKIEEVIGAGEFGEVCRGRLKQPGRREVFVAIKTLKVGYTERQRRDFLSEASIMGQFDHPNIIRLEGVVTKSRPVMILTEFMENCALDSFLRLNDGQFTVIQLVGMLRGIAAGMKYLSEMNYVHRDLAARNILVNSNLVCKVSDFGLSRFLEDDPSDPTYTSSLGGKIPIRWTAPEAIAYRKFTSASDVWSYGIVMWEVMSYGERPYWDMSNQDVINAVEQDYRLPPPMDCPTALHQLMLDCWVRDRNLRPKFSQIVNTLDKLIRNAASLKVIASAQSGMSQPLLDRTVPDYTTFTTVGDWLDAIKMGRYKESFVSAGFASFDLVAQMTAEDLLRIGVTLAGHQKKILSSIQDMRLQMNQTLPVQV
modifications: left off: a dimerising Fc or GST
- MBP Kinase Activity: Strong

B4: EPHB2 (protein)
chain: CNRRGFERADSEYTDKLQHYTSGHMTPGMKIYIDPFTYEDPNEAVREFAKEIDISCVKIEQVIGAGEFGEVCSGHLKLPGKREIFVAIKTLKSGYTEKQRRDFLSEASIMGQFDHPNVIHLEGVVTKSTPVMIITEFMENGSLDSFLRQNDGQFTVIQLVGMLRGIAAGMKYLADMNYVHRDLAARNILVNSNLVCKVSDFGLSRFLEDDTSDPTYTSALGGKIPIRWTAPEAIQYRKFTSASDVWSYGIVMWEVMSYGERPYWDMTNQDVINAIEQDYRLPPPMDCPSALHQLMLDCWQKDRNHRPKFGQIVNTLDKMIRNPNSLKAMAPLSSGINLPLLDRTIPDYTSFNTVDEWLEAIKMGQYKESFANAGFTSFDVVSQMMMEDILRVGVTLAGHQKKILNSIQVMRAQMNQIQSVEV
modifications: left off: a dimerising Fc or GST
- MBP Kinase Activity: Strong

B5: PRKCN(PKD3) (protein)
chain: MSANNSPPSAQKSVLPTAIPAVLPAASPCSSPKTGLSARLSNGSFSAPSLTNSRGSVHTVSFLLQIGLTRESVTIEAQELSLSAVKDLVCSIVYQKFPECGFFGMYDKILLFRHDMNSENILQLITSADEIHEGDLVEVVLSALATVEDFQIRPHTLYVHSYKAPTFCDYCGEMLWGLVRQGLKCEGCGLNYHKRCAFKIPNNCSGVRKRRLSNVSLPGPGLSVPRPLQPEYVALPSEESHVHQEPSKRIPSWSGRPIWMEKMVMCRVKVPHTFAVHSYTRPTICQYCKRLLKGLFRQGMQCKDCKFNCHKRCASKVPRDCLGEVTFNGEPSSLGTDTDIPMDIDNNDINSDSSRGLDDTEEPSPPEDKMFFLDPSDLDVERDEEAVKTISPSTSNNIPLMRVVQSIKHTKRKSSTMVKEGWMVHYTSRDNLRKRHYWRLDSKCLTLFQNESGSKYYKEIPLSEILRISSPRDFTNISQGSNPHCFEIITDTMVYFVGENNGDSSHNPVLAATGVGLDVAQSWEKAIRQALMPVTPQASVCTSPGQGKDHKDLSTSISVSNCQIQENVDISTVYQIFADEVLGSGQFGIVYGGKHRKTGRDVAIKVIDKMRFPTKQESQLRNEVAILQNLHHPGIVNLECMFETPERVFVVMEKLHGDMLEMILSSEKSRLPERITKFMVTQILVALRNLHFKNIVHCDLKPENVLLASAEPFPQVKLCDFGFARIIGEKSFRRSVVGTPAYLAPEVLRSKGYNRSLDMWSVGVIIYVSLSGTFPFNEDEDINDQIQNAAFMYPPNPWREISGEAIDLINNLLQVKMRKRYSVDKSLSHPWLQDYQTWLDLREFETRIGERYITHESDDARWEIHAYTHNLVYPKHFIMAPNPDDMEEDP
modifications: left off: a dimerising Fc or GST
- MBP Kinase Activity: Weak

B6: PRKD1(PKD) (protein)
chain: MSAPPVLRPPSPLLPVAAAAAAAAAALVPGSGPGPAPFLAPVAAPVGGISFHLQIGLSREPVLLLQDSSGDYSLAHVREMACSIVDQKFPECGFYGMYDKILLFRHDPTSENILQLVKAASDIQEGDLIEVVLSASATFEDFQIRPHALFVHSYRAPAFCDHCGEMLWGLVRQGLKCEGCGLNYHKRCAFKIPNNCSGVRRRRLSNVSLTGVSTIRTSSAELSTSAPDEPLLQKSPSESFIGREKRSNSQSYIGRPIHLDKILMSKVKVPHTFVIHSYTRPTVCQYCKKLLKGLFRQGLQCKDCRFNCHKRCAPKVPNNCLGEVTINGDLLSPGAESDVVMEEGSDDNDSERNSGLMDDMEEAMVQDAEMAMAECQNDSGEMQDPDPDHEDANRTISPSTSNNIPLMRVVQSVKHTKRKSSTVMKEGWMVHYTSKDTLRKRHYWRLDSKCITLFQNDTGSRYYKEIPLSEILSLEPVKTSALIPNGANPHCFEITTANVVYYVGENVVNPSSPSPNNSVLTSGVGADVARMWEIAIQHALMPVIPKGSSVGTGTNLHRDISVSISVSNCQIQENVDISTVYQIFPDEVLGSGQFGIVYGGKHRKTGRDVAIKIIDKLRFPTKQESQLRNEVAILQNLHHPGVVNLECMFETPERVFVVMEKLHGDMLEMILSSEKGRLPEHITKFLITQILVALRHLHFKNIVHCDLKPENVLLASADPFPQVKLCDFGFARIIGEKSFRRSVVGTPAYLAPEVLRNKGYNRSLDMWSVGVIIYVSLSGTFPFNEDEDIHDQIQNAAFMYPPNPWKEISHEAIDLINNLLQVKMRKRYSVDKTLSHPWLQDYQTWLDLRELECKIGERYITHESDDLRWEKYAGEQGLQYPTHLINPSASHSDTPETEETEMKALGERVSIL
modifications: left off: a dimerising Fc or GST
- MBP Kinase Activity: Weak

B7: PRKX (protein)
chain: MEAPGLAQAAAAESDSRKVAEETPDGAPALCPSPEALSPEPPVYSLQDFDTLATVGTGTFGRVHLVKEKTAKHFFALKVMSIPDVIRLKQEQHVHNEKSVLKEVSHPFLIRLFWTWHDERFLYMLMEYVPGGELFSYLRNRGRFSSTTGLFYSAEIICAIEYLHSKEIVYRDLKPENILLDRDGHIKLTDFGFAKKLVDRTWTLCGTPEYLAPEVIQSKGHGRAVDWWALGILIFEMLSGFPPFFDDNPFGIYQKILAGKIDFPRHLDFHVKDLIKKLLVVDRTRRLGNMKNGANDVKHHRWFRSVDWEAVPQRKLKPPIVPKIAGDGDTSNFETYPENDWDTAAPVPQKDLEIFKNF
modifications: left off: a dimerising Fc or GST
- MBP Kinase Activity: Negative

B8: PRKD2(PKD2) (protein)
chain: MATAPSYPAGLPGSPGPGSPPPPGGLELQSPPPLLPQIPAPGSGVSFHIQIGLTREFVLLPAASELAHVKQLACSIVDQKFPECGFYGLYDKILLFKHDPTSANLLQLVRSSGDIQEGDLVEVVLSASATFEDFQIRPHALTVHSYRAPAFCDHCGEMLFGLVRQGLKCDGCGLNYHKRCAFSIPNNCSGARKRRLSSTSLASGHSVRLGTSESLPCTAEELSRSTTELLPRRPPSSSSSSSASSYTGRPIELDKMLLSKVKVPHTFLIHSYTRPTVCQACKKLLKGLFRQGLQCKDCKFNCHKRCATRVPNDCLGEALINGDVPMEEATDFSEADKSALMDESEDSGVIPGSHSENALHASEEEEGEGGKAQSSLGYIPLMRVVQSVRHTTRKSSTTLREGWVVHYSNKDTLRKRHYWRLDCKCITLFQNNTTNRYYKEIPLSEILTVESAQNFSLVPPGTNPHCFEIVTANATYFVGEMPGGTPGGPSGQGAEAARGWETAIRQALMPVILQDAPSAPGHAPHRQASLSISVSNSQIQENVDIATVYQIFPDEVLGSGQFGVVYGGKHRKTGRDVAVKVIDKLRFPTKQESQLRNEVAILQSLRHPGIVNLECMFETPEKVFVVMEKLHGDMLEMILSSEKGRLPERLTKFLITQILVALRHLHFKNIVHCDLKPENVLLASADPFPQVKLCDFGFARIIGEKSFRRSVVGTPAYLAPEVLLNQGYNRSLDMWSVGVIMYVSLSGTFPFNEDEDINDQIQNAAFMYPASPWSHISAGAIDLINNLLQVKMRKRYSVDKSLSHPWLQEYQTWLDLRELEGKMGERYITHESDDARWEQFAAEHPLPGSGLPTDRDLGGACPPQDHDMQGLAERISVL
modifications: left off: a dimerising Fc or GST
- MBP Kinase Activity: Strong
